First the molecules themselves.
B1: MGC16075 (parent)
chain: AGSRQALSFEVPPCNYDPEKWIQ
B2: FAM50A (parent)
chain: KKREKQREQMEQMKQRIAEENIMK
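Note: lentivirally expressed fusions sorted by FACS into six bins by GFP to DsRed ratio, PSI derived from sequencing read proportions per bin multiplied by bin number.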

The first data set covers variants of B1. The data set can be described thus: protein stability index of a GFP-peptide fusion (GPS, HEK-293T) (PSI 1-6); higher = more stable. The note with it: c terminus: native.
Take AGARQALSFEVPPCNYDPEKWIQ: the protein stability index was 1.67. Take AGRRQALSFEVPPCNYDPEKWIQ: the protein stability index came to 1.57. Take AGQRQALSFEVPPCNYDPEKWIQ: the protein stability index was 1.6. For AGWRQALSFEVPPCNYDPEKWIQ, the protein stability index is 2.7. Still for that read-out and setting: with AGGRQALSFEVPPCNYDPEKWIQ the figure was 2.88. For the variant AGERQALSFEVPPCNYDPEKWIQ, the protein stability index stood at 1.28. On to AGLRQALSFEVPPCNYDPEKWIQ, for which the protein stability index amounted to 1.93.

A further data set covers variants of B2. Described as above. The note with it: c terminus: a fixed tail appended.
In the case of KKREKQREQMEQMKQRIAEQNIMK, the protein stability index worked out at 4.17.

Take KKREKQREQMEQMKQRIAEPNIMK: the protein stability index is 4.8.

Turning to KKREKQREQMEQMKQRIAEKNIMK, the protein stability index amounted to 3.96. On the same count and under the same terms, the value for KKREKQREQMEQMKQRIAENNIMK was 4.44.

With KKREKQREQMEQMKQRIAETNIMK, the protein stability index amounted to 4.85. The same measure, in the same setting: with KKREKQREQMEQMKQRIAEVNIMK the figure was 3.74. As to KKREKQREQMEQMKQRIAERNIMK, the protein stability index was 4.48. Same read-out and setting: with KKREKQREQMEQMKQRIAEYNIMK the figure was 3.62; with KKREKQREQMEQMKQRIAELNIMK, 3.84; with KKREKQREQMEQMKQRIAEINIMK, 4. Turning to KKREKQREQMEQMKQRIAEMNIMK, the protein stability index came to 3.79. The same measure, in the same setting: with KKREKQREQMEQMKQRIAEWNIMK the figure was 3.47; with KKREKQREQMEQMKQRIAESNIMK, 3.37. In the case of KKREKQREQMEQMKQRIAEENIWK, the protein stability index is 4.02. Same read-out and setting: with KKREKQREQMEQMKQRIAEENISK the figure was 5.28; with KKREKQREQMEQMKQRIAEENIGK, 5; with KKREKQREQMEQMKQRIAEENIYK, 4.75.

For the variant KKREKQREQMEQMKQRIAEENIPK, the protein stability index worked out at 5.46. With KKREKQREQMEQMKQRIAEENIFK, the protein stability index is 4.32. Same read-out and setting: with KKREKQREQMEQMKQRIAEENIEK the figure was 5.25; with KKREKQREQMEQMKQRIAEENIAK, 4.63. Same read-out and setting: the value for KKREKQREQMEQMKQRIAEENIQK was 5.45; that for KKREKQREQMEQMKQRIAEENIHK was 4.89; that for KKREKQREQMEQMKQRIAEENILK was 4.49.

In the case of KKREKQREQMEQMKQRIAEENIIK, the protein stability index was 4.04. KKREKQREQMEQMKQRIAEENICK: the protein stability index amounted to 4.83. With KKREKQREQMEQMKQRIAEENIKK, the protein stability index worked out at 4.99. Same read-out and setting: with KKREKQREQMEQMKQRIAEENIRK the figure was 3.3. The same measure, in the same setting: with KKREKQREQMEQMKQRIAEENIVK the figure was 5.27; with KKREKQREQMEQMKQRIAEENINK, 4.66.

Turning to KKREKQREQMEQMKQRIAEENIDK, the protein stability index is 5.14. The same measure, in the same setting: with KKREKQREQMEQMKQRIAEENITK the figure was 4.93; with KKREKQREQMEQMKQRIAEEPIMK, 4.85. Still for that read-out and setting: with KKREKQREQMEQMKQRIAEETIMK the figure was 4.77. On the same count and under the same terms, the value for KKREKQREQMEQMKQRIAEEEIMK was 5.12; that for KKREKQREQMEQMKQRIAEEQIMK was 5.48. Take KKREKQREQMEQMKQRIAEEWIMK: the protein stability index was determined as 3.91. On to KKREKQREQMEQMKQRIAEEMIMK, for which the protein stability index came out at 4.64. As for KKREKQREQMEQMKQRIAEECIMK, the protein stability index was 4.63.

Regarding KKREKQREQMEQMKQRIAEESIMK, the protein stability index stood at 4.75.

Turning to KKREKQREQMEQMKQRIAEERIMK, the protein stability index was determined as 4.35.

On to KKREKQREQMEQMKQRIAEEKIMK, for which the protein stability index was 5.35. On to KKREKQREQMEQMKQRIAEEVIMK, for which the protein stability index stood at 4.03. The same measure, in the same setting: the value for KKREKQREQMEQMKQRIAEEIIMK was 4.17; that for KKREKQREQMEQMKQRIAEEAIMK was 4.73. The same measure, in the same setting: with KKREKQREQMEQMKQRIAEEFIMK the figure was 4.31; with KKREKQREQMEQMKQRIAEEYIMK, 4.41.

With KKREKQREQMEQMKQRIAEEDIMK, the protein stability index was determined as 5.11. Same read-out and setting: the value for KKREKQREQMEQMKQRIAEEGIMK was 4.75; that for KKREKQREQMEQMKQRIAEELIMK was 3.99; that for KKREKQREQMEQMKQRIAEEHIMK was 4.46. Still for that read-out and setting: with KKREKQREQMEQMKQRIAEENIMD the figure was 5.12; with KKREKQREQMEQMKQRIAEENIMH, 4.97. On to KKREKQREQMEQMKQRIAEENIMQ, for which the protein stability index turned out to be 4.86.

As to KKREKQREQMEQMKQRIAEENIMV, the protein stability index was 4.82. On to KKREKQREQMEQMKQRIAEENIMR, for which the protein stability index amounted to 4.16.

In the case of KKREKQREQMEQMKQRIAEENIMS, the protein stability index is 4.88.

For the variant KKREKQREQMEQMKQRIAEENIML, the protein stability index was determined as 4.13. The same measure, in the same setting: with KKREKQREQMEQMKQRIAEENIMT the figure was 4.95. On the same count and under the same terms, with KKREKQREQMEQMKQRIAEENIMG the figure was 4.99. Same read-out and setting: with KKREKQREQMEQMKQRIAEENIMN the figure was 4.77.

On to KKREKQREQMEQMKQRIAEENIME, for which the protein stability index amounted to 4.85. Same read-out and setting: the value for KKREKQREQMEQMKQRIAEENIMY was 4.24; that for KKREKQREQMEQMKQRIAEENIMI was 4.35.

As for KKREKQREQMEQMKQRIAEENIMM, the protein stability index worked out at 5.03.

Consider KKREKQREQMEQMKQRIAEENIMW, for which the protein stability index came to 3.77. The same measure, in the same setting: the value for KKREKQREQMEQMKQRIAEENIMC was 5.14; that for KKREKQREQMEQMKQRIAEENIMP was 4.46; that for KKREKQREQMEQMKQRIAEENIMA was 4.33. On the same count and under the same terms, with KKREKQREQMEQMKQRIAEENIMF the figure was 4.39.

On to KKREKQREQMEQMKQRIAEENCMK, for which the protein stability index was 5.22. For KKREKQREQMEQMKQRIAEENTMK, the protein stability index was found to be 5.46. Still for that read-out and setting: with KKREKQREQMEQMKQRIAEENRMK the figure was 4.92.

As for KKREKQREQMEQMKQRIAEENVMK, the protein stability index worked out at 4.85. In the case of KKREKQREQMEQMKQRIAEENLMK, the protein stability index was 4.91.

As to KKREKQREQMEQMKQRIAEENNMK, the protein stability index stood at 5.12. On the same count and under the same terms, the value for KKREKQREQMEQMKQRIAEENMMK was 5.07.

Consider KKREKQREQMEQMKQRIAEENWMK, for which the protein stability index amounted to 4.63. For the variant KKREKQREQMEQMKQRIAEENFMK, the protein stability index worked out at 3.93. Turning to KKREKQREQMEQMKQRIAEENPMK, the protein stability index came out at 5.12. Still for that read-out and setting: the value for KKREKQREQMEQMKQRIAEENEMK was 5.68. Turning to KKREKQREQMEQMKQRIAEENQMK, the protein stability index was 4.75. Same read-out and setting: with KKREKQREQMEQMKQRIAEENAMK the figure was 4.48. Same read-out and setting: with KKREKQREQMEQMKQRIAEENHMK the figure was 4.8. The same measure, in the same setting: the value for KKREKQREQMEQMKQRIAEENKMK was 4.16.

Take KKREKQREQMEQMKQRIAEENYMK: the protein stability index was 4.18. As for KKREKQREQMEQMKQRIAEENGMK, the protein stability index is 5.2. Turning to KKREKQREQMEQMKQRIAEENSMK, the protein stability index came out at 5.33. Same read-out and setting: the value for KKREKQREQMEQMKQRIAEENDMK was 5.54.

The values above are taken from the supplement of paper PMC10567573.
